Test results from the supplement of paper PMC10567573.
± gives the standard deviation.

Assay: protein stability index of a GFP-peptide fusion (GPS, HEK-293T) (PSI 1-6); higher = more stable
[1] = treatment: DMSO, c terminus: a fixed tail appended
[2] = treatment: MLN4924 1 uM, 8 h, c terminus: a fixed tail appended
[3] = treatment: DMSO, c terminus: native
[4] = treatment: MLN4924 1 uM, 8 h, c terminus: native
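Further: 24-mer peptide tiles fused after GFP, lentivirally expressed, FACS-sorted into six equal bins by GFP/DsRed ratio, decoded by Illumina sequencing, PSI is the read-weighted mean bin number.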

Sequence: HLAVDKNTTCVGRYPVCKFPSLQV [FEM1C]
- protein stability index [1]: 2.46 ± 0.25
- protein stability index [2]: 2.44 ± 0.26

Sequence: GLRLRLPRRESLLRGLCRPLRPLL [C6orf223]
- protein stability index [1]: 2.15 ± 0.13
- protein stability index [2]: 2.2 ± 0.29

Sequence: YAATTTPFTPLHIKVKPKRVGIFL [TRIM39]
- protein stability index [1]: 2.52 ± 0.58
- protein stability index [2]: 2.81 ± 1.1

Sequence: QLSPSPTPASQSPKKPPAKDPLAD [SNAP91]
- protein stability index [1]: 5.49 ± 0.26
- protein stability index [2]: 5.53 ± 0.29

Sequence: KCFSCNSNLHRHQRTHTGEKPYKC [ZNF263]
- protein stability index [1]: 3.5 ± 0.1
- protein stability index [2]: 3.45 ± 0.15

Sequence: FRKDSVLNILIQSLDWETFEQYCA [INTS3]
- protein stability index [1]: 2.51 ± 0.61
- protein stability index [2]: 2.04 ± 0.18

Sequence: NPPKASAAPDCTPSLEAGNPAPAA [MYCL]
- protein stability index [1]: 5.34 ± 0.19
- protein stability index [2]: 5.34 ± 0.23

Sequence: YGGRSVAPQNSFSAKLAPHYFHSI [KCNK9]
- protein stability index [1]: 2.23 ± 0.11
- protein stability index [2]: 2.3 ± 0.3

Sequence: DIKDDIYDPTYKDKEGPSPKVEYV [SCD]
- protein stability index [1]: 4.92 ± 0.14
- protein stability index [2]: 4.68 ± 0.17

Sequence: EGSSQEDEDLGLSEGSSQDSGED [SPANXN3]
- protein stability index [3]: 5.55 ± 0.24
- protein stability index [4]: 5.56 ± 0.19

Sequence: TWGKNKPGIGAVILKRFCWLLLQ [FAN1]
- protein stability index [3]: 3.45 ± 0.45
- protein stability index [4]: 2.87 ± 0.53

Sequence: DAETSKLIYDFIEDQGGLEAVRQE [WAS]
- protein stability index [1]: 4.61 ± 0.24
- protein stability index [2]: 4.76 ± 0.28

Sequence: TYVGALFNGLTLLLMAVVSMFTLP [RTN1]
- protein stability index [1]: 3 ± 0.58
- protein stability index [2]: 3.43 ± 0.38

Sequence: IATATEIAYYSYIYSVVDLGMYQK [SLC19A2]
- protein stability index [1]: 3.05 ± 0.33
- protein stability index [2]: 2.94 ± 0.51

Sequence: LRLFGRVLERAACLRRCKRTLPAF [P3H4]
- protein stability index [1]: 2.37 ± 0.46
- protein stability index [2]: 2.16 ± 0.53

Sequence: RITQYLDAGGIPRTAQSEETRVWH [CAMK2A]
- protein stability index [1]: 3.03 ± 0.29
- protein stability index [2]: 3.24 ± 0.39

Sequence: LSSGMAVAGMPTAYDLSSVIASGS [CARM1]
- protein stability index [1]: 3.02 ± 0.22
- protein stability index [2]: 2.9 ± 0.41

Sequence: DVNSFVTECEPSELFQLQTYSLPP [CDS1]
- protein stability index [1]: 3.58 ± 0.29
- protein stability index [2]: 3.54 ± 0.35

Sequence: GSCGQGRTIRHVYCKTSDGRVVPE [ADAMTSL2]
- protein stability index [1]: 3.66 ± 0.31
- protein stability index [2]: 3.57 ± 0.58

Sequence: DPNTAAGWLSVSDDLTSVTNHGYR [TRIM35]
- protein stability index [1]: 4.32 ± 0.15
- protein stability index [2]: 4.31 ± 0.13

Sequence: KQYKAVVYSNTIQSIIAIIRAMGR [GNAI1]
- protein stability index [1]: 1.95 ± 0.32
- protein stability index [2]: 2.21 ± 0.052

Sequence: HTFRATFQEPLYPALRLWEGAISI [TRIM14]
- protein stability index [1]: 2.85 ± 0.57
- protein stability index [2]: 2.69 ± 0.71

Sequence: FSGSLVAALSATGPRFLAYFGSFA [TMEM175]
- protein stability index [1]: 2.91 ± 0.11
- protein stability index [2]: 2.61 ± 0.37

Sequence: AQEEPWEKKESLGAAQEALSIQLQ [ZNF232]
- protein stability index [1]: 4.91 ± 0.4
- protein stability index [2]: 5 ± 0.15

Sequence: QPGLLHLQSCGDLHTFTPAGRPRA [FAM189A2]
- protein stability index [1]: 5.66 ± 0.44
- protein stability index [2]: 5.53 ± 0.18

Sequence: DFEFLAFWQTQYNNMNAVNLFFAW [PKD2L1]
- protein stability index [1]: 3.17 ± 0.5
- protein stability index [2]: 2.93 ± 0.55

Sequence: TTTSAATATTAPPALDIFGDLFES [SNAP91]
- protein stability index [1]: 4.47 ± 0.1
- protein stability index [2]: 4.68 ± 0.16

Sequence: EEEDDDDIHITARIESDLTLESLS [DRICH1]
- protein stability index [1]: 5.16 ± 0.12
- protein stability index [2]: 5.16 ± 0.083

Sequence: FMPAMQFSIPPWRYDAEVVAIAQK [MYORG]
- protein stability index [1]: 2.33 ± 0.22
- protein stability index [2]: 2.52 ± 0.18

Sequence: EVSHPFLIRLFWTWHDERFLYMLM [PRKX]
- protein stability index [1]: 2.24 ± 0.55
- protein stability index [2]: 2.14 ± 0.19

Sequence: LQFEAEMARLQEEHGDQLLSIRCQ [MTUS2]
- protein stability index [1]: 3.99 ± 0.12
- protein stability index [2]: 3.92 ± 0.51

Sequence: RFEEPKGPPARQEDSKELRALRKM [CBY2]
- protein stability index [1]: 4.91 ± 0.43
- protein stability index [2]: 4.99 ± 0.2

Sequence: YRSEDLLDVDTAAGGFQQRQGLKY [FBXO3]
- protein stability index [1]: 4.25 ± 0.18
- protein stability index [2]: 4.18 ± 0.29

Sequence: GLAGFFASVAMICAIASGSELSES [SLC29A1]
- protein stability index [1]: 3 ± 0.53
- protein stability index [2]: 2.9 ± 0.37

Sequence: KVPESLVRSLRGEEPVPRERDRDP [LURAP1L]
- protein stability index [1]: 5.28 ± 0.13
- protein stability index [2]: 5.25 ± 0.33

Sequence: LPPTPLLLFPEEEATNGREGLLRF [AUP1]
- protein stability index [1]: 3.7 ± 0.33
- protein stability index [2]: 3.73 ± 0.13

Sequence: VSRREGALGWAPAAPPPLKDDPEG [ZBED3]
- protein stability index [1]: 5.24 ± 0.37
- protein stability index [2]: 5.43 ± 0.12

Sequence: FLSLACARGSIVATYIFIFIGETL [SPNS1]
- protein stability index [1]: 2.72 ± 0.2
- protein stability index [2]: 2.92 ± 0.71

Sequence: SGFSARERLERAVSDRLAPGAPRG [MYCL]
- protein stability index [1]: 4.13 ± 0.3
- protein stability index [2]: 4.16 ± 0.2

Sequence: GLDPEPLPLMDLCRRSVRLALGRE [SPSB1]
- protein stability index [1]: 4.02 ± 0.61
- protein stability index [2]: 3.62 ± 0.2

Sequence: TLHQRTHTEERPFKCNYCGKSFRQ [ZNF449]
- protein stability index [1]: 2.55 ± 0.33
- protein stability index [2]: 2.91 ± 0.51

Sequence: LKTGNSSPGIGAVYLANQAKNQSD [RTP4]
- protein stability index [1]: 3.82 ± 0.14
- protein stability index [2]: 3.97 ± 0.19

Sequence: TLQNGRRHIHHLGNQLQLNQHCLD [BRF1]
- protein stability index [1]: 3.1 ± 0.034
- protein stability index [2]: 3.31 ± 0.097

Sequence: GFALDILFAIANGFSPSYEFFAVT [SLC22A15]
- protein stability index [1]: 3.3 ± 0.042
- protein stability index [2]: 3.29 ± 1.1

Sequence: RYIVNGSHEANKLQDMLDGFIKKF [EIF5]
- protein stability index [1]: 1.98 ± 0.23
- protein stability index [2]: 2.17 ± 0.34

Sequence: SDTEAQCEVMQEIVDQVLEEDFDS [INTS3]
- protein stability index [1]: 5.56 ± 0.091
- protein stability index [2]: 5.42 ± 0.34

Sequence: ECQYYIDKLEYLDEKQRDPRIEAS [NET1]
- protein stability index [1]: 4.12 ± 0.13
- protein stability index [2]: 4.04 ± 0.19

Sequence: DGKRVIVVFHCEFSSERGPRMCRY [CDC25A]
- protein stability index [1]: 2.64 ± 0.53
- protein stability index [2]: 2.73 ± 0.78

Sequence: GALGMSNRDSYFYAAIVAVVAVHV [VMA21]
- protein stability index [1]: 2.77 ± 0.45
- protein stability index [2]: 2.81 ± 0.22

Sequence: QLDIASQSLDQEILLKVKTEIEEE [BCL2L13]
- protein stability index [1]: 5.21 ± 0.37
- protein stability index [2]: 5.09 ± 0.21

Sequence: GQLVRNDSLWHRSDSAPRNKISRF [MFF]
- protein stability index [1]: 3.66 ± 0.87
- protein stability index [2]: 4.04 ± 0.21

Sequence: PPPPPPHNSGPPPPPARGRGAPPP [WASL]
- protein stability index [1]: 5.14 ± 0.2
- protein stability index [2]: 5.19 ± 0.16

Sequence: EETVTMLEDVERELDGPKQIFFGR [ZNF396]
- protein stability index [1]: 4.5 ± 0.14
- protein stability index [2]: 4.49 ± 0.26

Sequence: VQEHARCVHPRGGVIQSVSSWKHG [C18orf25]
- protein stability index [1]: 3.08 ± 0.28
- protein stability index [2]: 3.03 ± 0.4

Sequence: GQWLGGRQIRTNWATRKPPAPKST [TIA1]
- protein stability index [1]: 3.57 ± 0.3
- protein stability index [2]: 3.73 ± 0.34

Sequence: QRIHAAERLCMGVDCTEIFGGNPR [ZNF263]
- protein stability index [1]: 3.36 ± 0.27
- protein stability index [2]: 3.38 ± 0.31

Sequence: LLLAYNSSARIPKCPWMEGGEMSP [INTS4]
- protein stability index [1]: 2.27 ± 0.32
- protein stability index [2]: 2.17 ± 0.14

Sequence: MNLELLESFGQNYPEEADGTLDCI [RBBP5]
- protein stability index [1]: 4.77 ± 0.25
- protein stability index [2]: 4.89 ± 0.12
